Legend:
[1] = Stability of linkers L1-L4 conjugated to FGF21 (LC-MS); assay type: physicochemical; settings: linker conjugated to FGF21ΔH-A129C
Experimental: The following experiment was performed to investigate the chemical stability over 2 weeks of the four linkers upon conjugation to FGF21: each linker was conjugated to FGF21, placed at +4° C. storage conditions, and aliquots were removed and quenched by freezing at specific time points, and linker stability was monitored by LCMS analysis.
The four linkers were dissolved in DMSO from lyophilized stock material. […] L1 was reacted with protein for 30 mins; L2, L3 and L4 were reacted for 2 hrs. The conjugation reaction was quenched by removal of excess linkers through size-exclusion resin. Conjugated FGF21ΔH-A129C protein was placed at +4° C. for stability storage. […] Analysis of linker stability was performed by LC-MS analysis to determine the relative amount of unconjugated protein, protein+linker conjugation, and single and double hydrolysis events of the conjugated protein+linker.
Linker hydrolysis is the critical analytical variable in this experiment. Hydrolysis was monitored by observing the subsequent addition of H2O to the FGF21-linker complex. A single addition of H2O, +(1) H2O, likely indicates the hydrolysis of the active AZD group that is present on all 4 linkers. The addition of a second H2O molecule, +(2) H2O, is a strong indicator of hydrolysis (eg—chemical instability) in the linker. L1 is particularly susceptible because of the presence of a maleimide functional group.

[2] = Hydrolysis of the reactive group of [SEQ ID NO:10-L1] over time; assay type: physicochemical; settings: 4° C., FGF21 RP chromatography
Experimental: Fine Tune of Conjugation Conditions for FGF21-Linker: The laboratory scale-ups were performed at different scales with a variety of optimized buffers and pHs. […] Since hydrolysis of reactive group of SEQ ID NO:10-L1 occurs over time (Table 27), post activation diafiltration of SEQ ID NO:10-L1 should be operated at between about 2 and about 10° C. The amount of SEQ ID NO:10-L1 after post activation diafiltration varied in different experiments, and the difference could contribute to the variation of the conjugation efficiency for h38C2-[SEQ ID NO:10-L1]1. About 100 mM Phosphate pH about 6.3 gave the least aggregates and highest h38C2 remaining for recycle purpose.
The above sample was further passed through the UFDF to remove excess linker and TCEP. The membrane was sanitized with 1N NaOH for 30 min, drained, and equilibrated with 100 mM MES, pH 7.0. Buffer 100 mM MES, pH 7.0 was used for diafilteration (7× diafilteration). Diafiltration was done at 4 g/L retentate concentration. Foaming and splashing may be avoided during UF/DF. Hydrolysis of the reactive group of [SEQ ID NO:10-L1] occurred over the diafiltration process. The hold time for post-activation DF pool should be minimized. UF may be operated at 2-10° C. using 10K Sartorius Hydrosart membrane. The combined species [SEQ ID NO:10-L1] confirmed by FGF21 RP was down from 73% to 64% after UF/DF.

[3] = +4° C. storage, LC-MS, of total measured protein, 0 hrs

O=C(CCN1C(=O)C=CC1=O)NCCOCCOCCC(=O)Nc1ccc(CCC(=O)N2CCC2=O)cc1 [Compound L1, 3-(2,5-dioxo-2,5-dihydro-1H-pyrrol-1-yl)-N-(2-(2-(3-oxo-3-(4-(3-oxo-3-(2-oxoazetidin-1-yl)propyl)phenylamino)propoxy)ethoxy)ethyl)propanamide]
0 linker (unconjugated protein) [1, 3]: 13%
1 linker (protein+linker conjugation) ([1]; +4° C., 0 hrs): 49%
+(1) H2O (single hydrolysis) ([1]; +4° C., 0 hrs): 30%
+(2) H2O (double hydrolysis) ([1]; +4° C., 0 hrs): 8%
0 linker (unconjugated protein) ([1]; +4° C., 24 hrs): 14%
1 linker (protein+linker conjugation) ([1]; +4° C., 24 hrs): 41%
+(1) H2O (single hydrolysis) ([1]; +4° C., 24 hrs): 34%
+(2) H2O (double hydrolysis) ([1]; +4° C., 24 hrs): 11%
0 linker (unconjugated protein) ([1]; +4° C., 72 hrs): 14%
1 linker (protein+linker conjugation) ([1]; +4° C., 72 hrs): 40%
+(1) H2O (single hydrolysis) ([1]; +4° C., 72 hrs): 35%
+(2) H2O (double hydrolysis) ([1]; +4° C., 72 hrs): 11%
0 linker (unconjugated protein) ([1]; +4° C., 168 hrs): 10%
1 linker (protein+linker conjugation) ([1]; +4° C., 168 hrs): 33%
+(1) H2O (single hydrolysis) ([1]; +4° C., 168 hrs): 40%
+(2) H2O (double hydrolysis) ([1]; +4° C., 168 hrs): 18%
0 linker (unconjugated protein) ([1]; +4° C., 336 hrs): 12%
1 linker (protein+linker conjugation) ([1]; +4° C., 336 hrs): 28%
+(1) H2O (single hydrolysis) ([1]; +4° C., 336 hrs): 41%
+(2) H2O (double hydrolysis) ([1]; +4° C., 336 hrs (2 weeks)): 18%

CC1=CC(=O)N(CCC(=O)NCCOCCOCCC(=O)Nc2ccc(CCC(=O)N3CCC3=O)cc2)C1=O [Compound L2]
0 linker (unconjugated protein) [1, 3]: 22%
1 linker (protein+linker conjugation) ([1]; +4° C., 0 hrs): 45%
+(1) H2O (single hydrolysis) ([1]; +4° C., 0 hrs): 27%
+(2) H2O (double hydrolysis) ([1]; +4° C., 0 hrs): 6%
0 linker (unconjugated protein) ([1]; +4° C., 24 hrs): 23%
1 linker (protein+linker conjugation) ([1]; +4° C., 24 hrs): 43%
+(1) H2O (single hydrolysis) ([1]; +4° C., 24 hrs): 26%
+(2) H2O (double hydrolysis) ([1]; +4° C., 24 hrs): 8%
0 linker (unconjugated protein) ([1]; +4° C., 72 hrs): 24%
1 linker (protein+linker conjugation) ([1]; +4° C., 72 hrs): 37%
+(1) H2O (single hydrolysis) ([1]; +4° C., 72 hrs): 32%
+(2) H2O (double hydrolysis) ([1]; +4° C., 72 hrs): 8%
0 linker (unconjugated protein) ([1]; +4° C., 168 hrs): 24%
1 linker (protein+linker conjugation) ([1]; +4° C., 168 hrs): 40%
+(1) H2O (single hydrolysis) ([1]; +4° C., 168 hrs): 29%
+(2) H2O (double hydrolysis) ([1]; +4° C., 168 hrs): 7%
0 linker (unconjugated protein) ([1]; +4° C., 336 hrs): 26%
1 linker (protein+linker conjugation) ([1]; +4° C., 336 hrs): 38%
+(1) H2O (single hydrolysis) ([1]; +4° C., 336 hrs): 28%
+(2) H2O (double hydrolysis) ([1]; +4° C., 336 hrs (2 weeks)): 8%

CC1=CC(=O)N(CCOCCOCCC(=O)Nc2ccc(CCC(=O)N3CCC3=O)cc2)C1=O [Compound L3]
0 linker (unconjugated protein) [1, 3]: 19%
1 linker (protein+linker conjugation) ([1]; +4° C., 0 hrs): 45%
+(1) H2O (single hydrolysis) ([1]; +4° C., 0 hrs): 30%
+(2) H2O (double hydrolysis) ([1]; +4° C., 0 hrs): 6%
0 linker (unconjugated protein) ([1]; +4° C., 24 hrs): 18%
1 linker (protein+linker conjugation) ([1]; +4° C., 24 hrs): 47%
+(1) H2O (single hydrolysis) ([1]; +4° C., 24 hrs): 27%
+(2) H2O (double hydrolysis) ([1]; +4° C., 24 hrs): 8%
0 linker (unconjugated protein) ([1]; +4° C., 72 hrs): 19%
1 linker (protein+linker conjugation) ([1]; +4° C., 72 hrs): 43%
+(1) H2O (single hydrolysis) ([1]; +4° C., 72 hrs): 30%
+(2) H2O (double hydrolysis) ([1]; +4° C., 72 hrs): 8%
0 linker (unconjugated protein) ([1]; +4° C., 168 hrs): 19%
1 linker (protein+linker conjugation) ([1]; +4° C., 168 hrs): 43%
+(1) H2O (single hydrolysis) ([1]; +4° C., 168 hrs): 29%
+(2) H2O (double hydrolysis) ([1]; +4° C., 168 hrs): 8%
0 linker (unconjugated protein) ([1]; +4° C., 336 hrs): 20%
1 linker (protein+linker conjugation) ([1]; +4° C., 336 hrs): 43%
+(1) H2O (single hydrolysis) ([1]; +4° C., 336 hrs): 29%
+(2) H2O (double hydrolysis) ([1]; +4° C., 336 hrs (2 weeks)): 8%

CC1=CC(=O)N(CC2CCC(C(=O)NCCOCCOCCC(=O)Nc3ccc(CCC(=O)N4CCC4=O)cc3)CC2)C1=O (centres unmarked) [Compound L4]
0 linker (unconjugated protein) [1, 3]: 20%
1 linker (protein+linker conjugation) ([1]; +4° C., 0 hrs): 46%
+(1) H2O (single hydrolysis) ([1]; +4° C., 0 hrs): 28%
+(2) H2O (double hydrolysis) ([1]; +4° C., 0 hrs): 6%
0 linker (unconjugated protein) ([1]; +4° C., 24 hrs): 20%
1 linker (protein+linker conjugation) ([1]; +4° C., 24 hrs): 46%
+(1) H2O (single hydrolysis) ([1]; +4° C., 24 hrs): 27%
+(2) H2O (double hydrolysis) ([1]; +4° C., 24 hrs): 7%
0 linker (unconjugated protein) ([1]; +4° C., 72 hrs): 21%
1 linker (protein+linker conjugation) ([1]; +4° C., 72 hrs): 42%
+(1) H2O (single hydrolysis) ([1]; +4° C., 72 hrs): 30%
+(2) H2O (double hydrolysis) ([1]; +4° C., 72 hrs): 7%
0 linker (unconjugated protein) ([1]; +4° C., 168 hrs): 21%
1 linker (protein+linker conjugation) ([1]; +4° C., 168 hrs): 41%
+(1) H2O (single hydrolysis) ([1]; +4° C., 168 hrs): 32%
+(2) H2O (double hydrolysis) ([1]; +4° C., 168 hrs): 6%
0 linker (unconjugated protein) ([1]; +4° C., 336 hrs): 22%
1 linker (protein+linker conjugation) ([1]; +4° C., 336 hrs): 41%
+(1) H2O (single hydrolysis) ([1]; +4° C., 336 hrs): 31%
+(2) H2O (double hydrolysis) ([1]; +4° C., 336 hrs (2 weeks)): 6%

B1: [SEQ ID NO: 10-L1] (protein, listed as Homo sapiens)
chain: PIPDSSPLLQFGGQVRQRYLYTDDAQQTEAHLEIREDGTVGGAADQSPESLLQLKALKPGVIQILGVKTSRFLCQRPDGALYGSLHFDPEACSFRELLLEDGYNVYQSEAHGLPLHLPGNKSPHRDPCPRGPARFLPLPGLPPALPEPPGILAPQPPDVGSSDPLSMVGPSQGRSPSYAS
modifications: L1 linker attached
% FGF21 ([2]; 0 hour): 13.4%
% FGF21 dimer ([2]; 0 hour): 1.8%
% Hydrolyzed reactive FGF21ΔH-A129C-L1 ([2]; 0 hour): 6.5%
% Other ([2]; 0 hour): 1.6%
% reactive FGF21ΔH-A129C-L1 ([2]; 0 hour): 76.7%
% FGF21 ([2]; 1 hour): 13.2%
% FGF21 dimer ([2]; 1 hour): 2.8%
% Hydrolyzed reactive FGF21ΔH-A129C-L1 ([2]; 1 hour): 8.8%
% Other ([2]; 1 hour): 1.6%
% reactive FGF21ΔH-A129C-L1 ([2]; 1 hour): 73.6%
% FGF21 ([2]; 2 hrs): 14.4%
% FGF21 dimer ([2]; 2 hrs): 4.0%
% Hydrolyzed reactive FGF21ΔH-A129C-L1 ([2]; 2 hrs): 10.6%
% Other ([2]; 2 hrs): 1.9%
% reactive FGF21ΔH-A129C-L1 ([2]; 2 hrs): 69.1%
% FGF21 ([2]; 3 hrs): 13.3%
% FGF21 dimer ([2]; 3 hrs): 4.1%
% Hydrolyzed reactive FGF21ΔH-A129C-L1 ([2]; 3 hrs): 13.6%
% Other ([2]; 3 hrs): 1.9%
% reactive FGF21ΔH-A129C-L1 ([2]; 3 hrs): 67.1%
% FGF21 ([2]; 4 hrs): 13.9%
% FGF21 dimer ([2]; 4 hrs): 4.5%
% Hydrolyzed reactive FGF21ΔH-A129C-L1 ([2]; 4 hrs): 14.9%
% Other ([2]; 4 hrs): 1.8%
% reactive FGF21ΔH-A129C-L1 ([2]; 4 hrs): 64.9%
% FGF21 ([2]; 5 hrs): 14.3%
% FGF21 dimer ([2]; 5 hrs): 5.0%
% Hydrolyzed reactive FGF21ΔH-A129C-L1 ([2]; 5 hrs): 16.9%
% Other ([2]; 5 hrs): 1.9%
% reactive FGF21ΔH-A129C-L1 ([2]; 5 hrs): 61.9%
% FGF21 ([2]; 6 hrs): 13.9%
% FGF21 dimer ([2]; 6 hrs): 5.2%
% Hydrolyzed reactive FGF21ΔH-A129C-L1 ([2]; 6 hrs): 18.8%
% Other ([2]; 6 hrs): 1.8%
% reactive FGF21ΔH-A129C-L1 ([2]; 6 hrs): 60.3%
% FGF21 ([2]; 8 hrs): 14.5%
% FGF21 dimer ([2]; 8 hrs): 5.7%
% Hydrolyzed reactive FGF21ΔH-A129C-L1 ([2]; 8 hrs): 22.3%
% Other ([2]; 8 hrs): 1.7%
% reactive FGF21ΔH-A129C-L1 ([2]; 8 hrs): 55.8%
% FGF21 ([2]; 10 hrs): 15.0%
% FGF21 dimer ([2]; 10 hrs): 5.9%
% Hydrolyzed reactive FGF21ΔH-A129C-L1 ([2]; 10 hrs): 25.0%
% Other ([2]; 10 hrs): 1.8%
% reactive FGF21ΔH-A129C-L1 ([2]; 10 hrs): 52.3%

— patent publication US9163227B2, “Anti-diabetic compounds” (PFIZER INC., priority 2011, dated 2015)
